“And” between values parts separate entries of the source, which are not always exact repeats. Identical values can stand only once.
Target: N-heptad repeat of HIV-1's gp41 (HIV-1 strain IIIB) (HIV-1 strain IIIB), P04578
Assay: cell-based or functional assay

Chain of N-heptad repeat of HIV-1's gp41 (HIV-1 strain IIIB) (HIV-1 strain IIIB), P04578 (P04578 540-590 limits assumed): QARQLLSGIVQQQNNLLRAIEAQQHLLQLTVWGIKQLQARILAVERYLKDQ

| Binder | RT Results (cpm) (Day 7), HIV-1 IIIB in CBMC, drug at 0 nM (no-drug baseline) | RT Results (cpm) (Day 7), HIV-1 IIIB in CBMC, drug at 125 nM | RT Results (cpm) (Day 7), HIV-1 IIIB in CBMC, drug at 600 nM | RT Results (cpm) (Day 7), HIV-1 IIIB in CBMC, drug at 3000 nM |
| --- | --- | --- | --- | --- |
| WMEWDREINNYTSLIHSLIEESQNQQERNEQELL (modifications not checked) [CJC-1646 (SEQ ID NO:93), native (unreactive) C34] | 49000 cpm and 46300 cpm and 47400 cpm | 5850 cpm and 5040 cpm and 5220 cpm | 4920 cpm and 5850 cpm and 5090 cpm | 5810 cpm and 6960 cpm and 5970 cpm |
| WMEWKREINNYTSLIHSLIEESQNQQERNEQELL (modifications not checked) [CJC-1655 (SEQ ID NO:32), C34 with linker-R1-R2-M inserted at position Asp5] | 71900 cpm and 54100 cpm and 51000 cpm | 6320 cpm and 6930 cpm and 5910 cpm | 6480 cpm and 11900 cpm and 6030 cpm | 7970 cpm and 5900 cpm and 6210 cpm |
